# Test results: PMC2788865
# Legend:
# [1] = biological target: phospho-Thr^286-αCaMKII (mouse) (UniProt P11798); experiment: fluorescence polarisation
# calmodulin (CaM) = experiment: FL-CaM fluorescence polarisation; details: reference: αCaMKII with Ca2+/FL-CaM, no ATP; sites T286
# Sequence of αCaMKII (P11798 whole entry, looked up, change not shown): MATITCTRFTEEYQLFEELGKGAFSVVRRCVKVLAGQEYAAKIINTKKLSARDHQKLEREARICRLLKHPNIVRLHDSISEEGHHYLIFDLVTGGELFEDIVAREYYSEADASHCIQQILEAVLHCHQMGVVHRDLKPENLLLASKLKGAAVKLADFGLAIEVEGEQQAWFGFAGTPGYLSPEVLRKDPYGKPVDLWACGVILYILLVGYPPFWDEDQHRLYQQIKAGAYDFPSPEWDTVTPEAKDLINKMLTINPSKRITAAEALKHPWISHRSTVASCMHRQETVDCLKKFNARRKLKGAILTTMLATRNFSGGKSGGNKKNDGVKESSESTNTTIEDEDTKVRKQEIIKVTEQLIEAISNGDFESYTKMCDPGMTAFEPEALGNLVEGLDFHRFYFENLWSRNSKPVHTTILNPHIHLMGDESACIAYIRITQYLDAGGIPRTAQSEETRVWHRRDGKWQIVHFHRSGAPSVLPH
# Sequence of phospho-Thr^286-αCaMKII (mouse) (P11798 whole entry): as the sequence (P11798 whole entry, looked up, change not shown) above
substance,measurement,setting,value
Lys^75-FL-calmodulin (FL-CaM) (from UniProt P0DP23 1-149) (natural protein),"rate constant of CaM dissociation (polarization, slow phase) after EGTA",[1],0.02 s⁻¹
αCaMKII (from UniProt P11798) αCaMKII with Ca2+/FL-CaM and ATP (autophosphorylated),other: fluorescence polarisation of FL-CaM,calmodulin (CaM),stronger; reference 0.33
